Assay results as given in IntAct's records for PubMed 23917616.

B1: Myotubularin (Homo sapiens), Q13496 (parent)
chain: MASASTSKYNSHSLENESIKRTSRDGVNRDLTEAVPRLPGETLITDKEVIYICPFNGPIKGRVYITNYRLYLRSLETDSSLILDVPLGVISRIEKMGGATSRGENSYGLDITCKDMRNLRFALKQEGHSRRDMFEILTRYAFPLAHSLPLFAFLNEEKFNVDGWTVYNPVEEYRRQGLPNHHWRITFINKCYELCDTYPALLVVPYRASDDDLRRVATFRSRNRIPVLSWIHPENKTVIVRCSQPLVGMSGKRNKDDEKYLDVIRETNKQISKLTIYDARPSVNAVANKATGGGYESDDAYHNAELFFLDIHNIHVMRESLKKVKDIVYPNVEESHWLSSLESTHWLEHIKLVLTGAIQVADKVSSGKSSVLVHCSDGWDRTAQLTSLAMLMLDSFYRSIEGFEILVQKEWISFGHKFASRIGHGDKNHTDADRSPIFLQFIDCVWQMSKQFPTAFEFNEQFLIIILDHLYSCRFGTFLFNCESARERQKVTERTVSLWSLINSNKEKFKNPFYTKEINRVLYPVASMRHLELWVNYYIRWNPRIKQQQPNPVEQRYMELLALRDEYIKRLEELQLANSAKLSDPPTSPSSPSQMMPHVQTHF
partner: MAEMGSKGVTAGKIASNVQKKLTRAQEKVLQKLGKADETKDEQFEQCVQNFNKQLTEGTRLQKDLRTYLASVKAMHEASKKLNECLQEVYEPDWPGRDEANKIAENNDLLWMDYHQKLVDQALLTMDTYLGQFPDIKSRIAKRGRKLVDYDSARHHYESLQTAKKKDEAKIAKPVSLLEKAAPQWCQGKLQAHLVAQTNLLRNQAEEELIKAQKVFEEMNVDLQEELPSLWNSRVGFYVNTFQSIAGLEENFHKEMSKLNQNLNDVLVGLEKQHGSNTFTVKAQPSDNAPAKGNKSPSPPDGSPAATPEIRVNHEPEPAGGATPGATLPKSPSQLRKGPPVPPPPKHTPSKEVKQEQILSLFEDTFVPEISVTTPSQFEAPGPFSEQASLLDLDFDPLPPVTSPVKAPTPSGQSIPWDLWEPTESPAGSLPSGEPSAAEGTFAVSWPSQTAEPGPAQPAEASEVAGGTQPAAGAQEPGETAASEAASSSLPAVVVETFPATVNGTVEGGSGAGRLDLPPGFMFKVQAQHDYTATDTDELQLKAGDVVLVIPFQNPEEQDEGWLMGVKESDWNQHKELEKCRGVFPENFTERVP

Variants of: B1
Conditions: with bin1_human BIN1, O00499

Variant	effect of a mutation on the interaction
C375S	disrupting interaction
